Laboratory results as given in US20110306546A1, “COMPOSITIONS FOR INCREASING HAIR GROWTH AND DECREASING HAIR LOSS” (ALVI ARMANI GENOMICS INC., priority 2010, published 2011).

tested on: Hair follicles (HF); assay: Hair follicle (HF) explant growth assay; type: cell-based, human; conditions: HF elongation after 7-8 days; 20 ng/ml of each growth factor, hypoxanthine 2 μM; mean of 6-8 independent experiments
Protocol: Hair follicles (HF) were extracted from the occipital area of 6-8 individuals with hair loss. The HFs were processed to equivalent lengths and cultured in William's E medium supplemented with 100 units/ml penicillin G, 100 μg/ml streptomycin, 0.25 μg/ml amphotericin B, […], 1 ng/ml hydrocortisone; basic medium or control medium or basic medium supplemented with 20 ng/ml of each of IGF-1, FGF-2, PDGF, Wnt-3A (Wnt), Noggin (Nog), Ephrin A3 (Eph), SHH and BMP-6 as well as hypoxanthine (Hyx) at 2 μM final concentration. The “GF10 cocktail” or “GF10” includes all nine growth factors and hypoxanthine while the “GF7 cocktail” or “GF7” contains six growth factors (all growth factors of GF10 except for FGF-10, Eph and SHH) and hypoxanthine. Growth promotion was measured as elongation of the HF at the end of 7-8 days. All growth factors and hypoxanthine promoted growth individually and in combination (FIG. 1 and Table 1).

| Molecule | Increase in growth (% control) Mean [% control] |
| --- | --- |
| Nog: secreted polypeptide noggin, binds and inactivates TGF-beta superfamily signaling proteins (protein, UniProt Q13253 28-232, looked up) Noggin: QHYLHIRPAPSDNLPLVDLIEHPDPIFDPKEKDLNETLLRSLLGGHYDPGFMATSPPEDRPGGGGGAAGGAEDLAELDQLLRQRPSGAMPSEIKGLEFSEGLAQGKKQRLSKKLRRKLQMWLWSQTFCPVLYAWNDLGSRFWPRYVKVGSCFSKRSCSVPEGMVCKPSKSVHLTVLRWRCQRRGGQRCGWIPIQYPIISECKCSC | 51.45 |
| FGF10: FGF-10, also known as keratinocyte growth factor (KGF2) (protein, UniProt O15520 38-208, looked up) Fibroblast growth factor 10: QALGQDMVSPEATNSSSSSFSSPSSAGRHVRSYNHLQGDVRWRKLFSFTKYFLKIEKNGKVSGTKKENCPYSILEITSVEIGVVAVKAINSNYYLAMNKKGKLYGSKEFNNDCKLKERIEENGYNTYASFNWQHNGRQMYVALNGKGAPRRGQKTRRKNTSAHFLPMVVHS | 48.55 |
| BMP-6: bone morphogenesis protein-6 (protein, UniProt P22004 375-513, looked up) Bone morphogenetic protein 6: SASSRRRQQSRNRSTQSQDVARVSSASDYNSSELKTACRKHELYVSFQDLGWQDWIIAPKGYAANYCDGECSFPLNAHMNATNHAIVQTLVHLMNPEYVPKPCCAPTKLNAISVLYFDDNSNVILKKYRNMVVRACGCH | 46.44 |
| Eph: member of the Ephrin family, binds to the Eph receptor (protein, UniProt P52797 23-214, looked up) Ephrin-A3: QGPGGALGNRHAVYWNSSNQHLRREGYTVQVNVNDYLDIYCPHYNSSGVGPGAGPGPGGGAEQYVLYMVSRNGYRTCNASQGFKRWECNRPHAPHSPIKFSEKFQRYSAFSLGYEFHAGHEYYYISTPTHNLHWKCLRMKVFVCCASTSHSGEKPVPTLPQFTMGPNVKINVLEDFEGENPQVPKLEKSISG | 57.61 |
| Wnt: Wnt-3a growth factor (protein, UniProt P56704 19-352, looked up) Protein Wnt-3a: SYPIWWSLAVGPQYSSLGSQPILCASIPGLVPKQLRFCRNYVEIMPSVAEGIKIGIQECQHQFRGRRWNCTTVHDSLAIFGPVLDKATRESAFVHAIASAGVAFAVTRSCAEGTAAICGCSSRHQGSPGKGWKWGGCSEDIEFGGMVSREFADARENRPDARSAMNRHNNEAGRQAIASHMHLKCKCHGLSGSCEVKTCWWSQPDFRAIGDFLKDKYDSASEMVVEKHRESRGWVETLRPRYTYFKVPTERDLVYYEASPNFCEPNPETGSFGTRDRTCNVSSHGIDGCDLLCCGRGHNARAERRREKCRCVFHWCCYVSCQECTRVYDVHTCK | 104.817 |
